The values below come from PMC6707142, “Orthogonal monoterpenoid biosynthesis in yeast constructed on an isomeric substrate” (Nature Communications, 2019).

Substrate in data set [1]: CC(C)=CCC/C(C)=C/COP(=O)(O)OP(=O)(O)O
The data set can be described thus: GC-MS of hexane-extracted monoterpene products. The format is biochemical, Salvia fruticosa. The settings on record: 20 mM MOPS pH 7.0, 20 mM MgCl2, 0.02 mM MnCl2, 30 °C, 1 h. An excerpt: (§1) GC-MS of hexane-extracted monoterpene products on […]1

Substrate in data set [2]: CC(C)=CCC/C(C)=C\COP(=O)(O)OP(=O)(O)O
The experiment in a line: GC-MS of hexane-extracted monoterpene products. It is filed as biochemical, Salvia fruticosa. The settings on record: 20 mM MOPS pH 7.0, 20 mM MgCl2, 0.02 mM MnCl2, 30 °C, 1 h.
Text: as §1

Substrate in the data set “purified protein”: C=C(C)CCO[P@@](=O)(O)OP(=O)(O)O
The data set can be described thus: purified protein. The settings on record: 0.05 mM DMAPP, 10 mM MOPS pH 7.0, 5 mM MgCl2, 30 °C, 1 h.

Substrate in data set [3]: CC(C)=CCOP(=O)(O)OP(=O)(O)O
The experiment in a line: GC-MS after acid hydrolysis of prenyl diphosphates. The format is biochemical, Solanum lycopersicum. The settings on record: 0.05 mM IPP, 10 mM MOPS pH 7.0, 5 mM MgCl2, 30 °C, 1 h.

Substrate in data set [4]: CC(C)=CCC/C(C)=C/COP(=O)(O)OP(=O)(O)O
The data set can be described thus: GC-MS of hexane-extracted monoterpene products. The format is biochemical, Citrus x limon. The settings on record: 20 mM MOPS pH 7.0, 20 mM MgCl2, 0.02 mM MnCl2, 30 °C, 1 h. An excerpt: (§2) GC-MS of hexane-extracted monoterpene products on […]

Substrate in data set [5]: CC(C)=CCC/C(C)=C\COP(=O)(O)OP(=O)(O)O
The experiment in a line: GC-MS of hexane-extracted monoterpene products. It is filed as biochemical, Citrus x limon. The settings on record: 20 mM MOPS pH 7.0, 20 mM MgCl2, 0.02 mM MnCl2, 30 °C, 1 h.
Text: as §2

B1: SfCinS1 (Salvia fruticosa; F571V) (protein)
chain: CSLQTGNEIQTERRTGGYQPTLWDFSTIQSFDSEYKEEKHLMRAAGMIDQVKMMLQEEVDSIRRLELIDDLRRLGISCHFEREIVEILNSKYYTNNEIDERDLYSTALRFRLLRQYDFSVSQEVFDCFKNAKGTDFKPSLVDDTRGLLQLYEASFLSAQGEETLRLARDFATKFLQKRVLVDKDINLLSSIERALELPTHWRVQMPNARSFIDAYKRRPDMNPTVLELAKLDFNMVQAQFQQELKEASRWWNSTGLVHELPFVRDRIVECYYWTTGVVERRQHGYERIMLTKINALVTTIDDVFDIYGTLEELQLFTTAIQRWDIESMKQLPPYMQICYLALFNFVNEMAYDTLRDKGFDSTPYLRKVWVGLIESYLIEAKWYYKGHKPSLEEYMKNSWISIGGIPILSHLFFRLTDSIEEEAAESMHKYHDIVRASCTILRLADDMGTSLDEVERGDVPKSVQCYMNEKNASEEEAREHVRSLIDQTWKMMNKEMMTSSFSKYFVEVSANLARMAQWIYQHESDGVGMQHSLVNKMLRDLLFHRYE
notes: 6xHis-tagged, E. coli BL21(DE3), Ni-NTA purified
Regarding B1, in data set [1], the Km was determined as 271.5 ± 95.30 µM, the turnover number (kcat) worked out at 0.00533 ± 0.00133 s⁻¹ and the kcat/Km turned out to be 16.7 M⁻¹ s⁻¹. Further, in data set [2], the Km was 67.24 ± 13.30 µM, the kcat was found to be 0.0075 ± 0.000667 s⁻¹ and the kcat/Km came to 117 M⁻¹ s⁻¹.

B2: SfCinS1 (Salvia fruticosa; F571H) (protein)
chain: CSLQTGNEIQTERRTGGYQPTLWDFSTIQSFDSEYKEEKHLMRAAGMIDQVKMMLQEEVDSIRRLELIDDLRRLGISCHFEREIVEILNSKYYTNNEIDERDLYSTALRFRLLRQYDFSVSQEVFDCFKNAKGTDFKPSLVDDTRGLLQLYEASFLSAQGEETLRLARDFATKFLQKRVLVDKDINLLSSIERALELPTHWRVQMPNARSFIDAYKRRPDMNPTVLELAKLDFNMVQAQFQQELKEASRWWNSTGLVHELPFVRDRIVECYYWTTGVVERRQHGYERIMLTKINALVTTIDDVFDIYGTLEELQLFTTAIQRWDIESMKQLPPYMQICYLALFNFVNEMAYDTLRDKGFDSTPYLRKVWVGLIESYLIEAKWYYKGHKPSLEEYMKNSWISIGGIPILSHLFFRLTDSIEEEAAESMHKYHDIVRASCTILRLADDMGTSLDEVERGDVPKSVQCYMNEKNASEEEAREHVRSLIDQTWKMMNKEMMTSSFSKYFVEVSANLARMAQWIYQHESDGHGMQHSLVNKMLRDLLFHRYE
notes: as for B1
On to B2, for which, in data set [1], the Michaelis constant (Km) turned out to be 18.05 ± 5.07 µM, the kcat was 0.0143 ± 0.0015 s⁻¹ and the kcat/Km stood at 800 M⁻¹ s⁻¹. In data set [2], the Km was 238.1 ± 34.35 µM, the kcat came to 0.0123 ± 0.00133 s⁻¹ and the kcat/Km amounted to 50 M⁻¹ s⁻¹.

B3: SfCinS1 (Salvia fruticosa; F571L) (protein)
chain: CSLQTGNEIQTERRTGGYQPTLWDFSTIQSFDSEYKEEKHLMRAAGMIDQVKMMLQEEVDSIRRLELIDDLRRLGISCHFEREIVEILNSKYYTNNEIDERDLYSTALRFRLLRQYDFSVSQEVFDCFKNAKGTDFKPSLVDDTRGLLQLYEASFLSAQGEETLRLARDFATKFLQKRVLVDKDINLLSSIERALELPTHWRVQMPNARSFIDAYKRRPDMNPTVLELAKLDFNMVQAQFQQELKEASRWWNSTGLVHELPFVRDRIVECYYWTTGVVERRQHGYERIMLTKINALVTTIDDVFDIYGTLEELQLFTTAIQRWDIESMKQLPPYMQICYLALFNFVNEMAYDTLRDKGFDSTPYLRKVWVGLIESYLIEAKWYYKGHKPSLEEYMKNSWISIGGIPILSHLFFRLTDSIEEEAAESMHKYHDIVRASCTILRLADDMGTSLDEVERGDVPKSVQCYMNEKNASEEEAREHVRSLIDQTWKMMNKEMMTSSFSKYFVEVSANLARMAQWIYQHESDGLGMQHSLVNKMLRDLLFHRYE
notes: as for B1
As for B3, in data set [1], the Km was found to be 55.72 ± 9.22 µM, the kcat came out at 0.00733 ± 0.00117 s⁻¹ and the kcat/Km is 133 M⁻¹ s⁻¹. For the same protein, in data set [2], the Km came to 71.82 ± 17.63 µM, the turnover number (kcat) was 0.0107 ± 0.00133 s⁻¹ and the kcat/Km came out at 150 M⁻¹ s⁻¹.

B4: SfCinS1 (Salvia fruticosa) (protein)
chain: CSLQTGNEIQTERRTGGYQPTLWDFSTIQSFDSEYKEEKHLMRAAGMIDQVKMMLQEEVDSIRRLELIDDLRRLGISCHFEREIVEILNSKYYTNNEIDERDLYSTALRFRLLRQYDFSVSQEVFDCFKNAKGTDFKPSLVDDTRGLLQLYEASFLSAQGEETLRLARDFATKFLQKRVLVDKDINLLSSIERALELPTHWRVQMPNARSFIDAYKRRPDMNPTVLELAKLDFNMVQAQFQQELKEASRWWNSTGLVHELPFVRDRIVECYYWTTGVVERRQHGYERIMLTKINALVTTIDDVFDIYGTLEELQLFTTAIQRWDIESMKQLPPYMQICYLALFNFVNEMAYDTLRDKGFDSTPYLRKVWVGLIESYLIEAKWYYKGHKPSLEEYMKNSWISIGGIPILSHLFFRLTDSIEEEAAESMHKYHDIVRASCTILRLADDMGTSLDEVERGDVPKSVQCYMNEKNASEEEAREHVRSLIDQTWKMMNKEMMTSSFSKYFVEVSANLARMAQWIYQHESDGFGMQHSLVNKMLRDLLFHRYE
notes: as for B1
With B4, in data set [1], the Michaelis-Menten constant (Km) was determined as 26.12 ± 2.79 µM, the turnover number (kcat) was 0.0927 ± 0.00633 s⁻¹ and the catalytic efficiency (kcat/Km) is 3550 M⁻¹ s⁻¹. Moreover, in data set [2], the Km was determined as 89.46 ± 4.99 µM, the kcat is 0.203 ± 0.0445 s⁻¹ and the kcat/Km was determined as 2280 M⁻¹ s⁻¹.

B5: SlNPPS1 (Solanum lycopersicum) (protein)
chain: SARGLNKISCSLNLQTEKLCYEDNDNDLDEELMPKHIALIMDGNRRWAKDKGLEVYEGHKHIIPKLKEICDISSKLGIQIITAFAFSTENWKRSKEEVDFLLQMFEEIYDEFSRSGVRVSIIGCKSDLPMTLQKCIALTEETTKGNKGLHLVIALNYGGYYDILQATKSIVNKAMNGLLDVEDINKNLFDQELESKCPNPDLLIRTGGEQRVSNFLLWQLAYTEFYFTNTLFPDFGEEDLKEAIMNFQQRHRRFGGHTY
In the case of B5, in the data set “purified protein”, the Km was determined as 83.69 ± 17.41 µM and the kcat came out at 0.000683 ± 5e-05 s⁻¹. In addition, in data set [3], the Km turned out to be 66.72 ± 6.32 µM and the kcat turned out to be 0.000617 ± 1.7e-05 s⁻¹.

B6: ClLimS (Citrus x limon) (protein)
chain: AKYKPVQCLISAKYDNLTVDRRSANYQPSIWDHDFLQSLNSNYTDEAYKRRAEELRGKVKIAIKDVIEPLDQLELIDNLQRLGLAHRFETEIRNILNNIYNNNKDYNWRKENLYATSLEFRLLRQHGYPVSQEVFNGFKDDQGGFICDDFKGILSLHEASYYSLEGESIMEEAWQFTSKHLKEVMISKNMEEDVFVAEQAKRALELPLHWKVPMLEARWFIHIYERREDKNHLLLELAKMEFNTLQAIYQEELKEISGWWKDTGLGEKLSFARNRLVASFLWSMGIAFEPQFAYCRRVLTISIALITVIDDIYDVYGTLDELEIFTDAVERWDINYALKHLPGYMKMCFLALYNFVNEFAYYVLKQQDFDLLLSIKNAWLGLIQAYLVEAKWYHSKYTPKLEEYLENGLVSITGPLIITISYLSGTNPIIKKELEFLESNPDIVHWSSKIFRLQDDLGTSSDEIQRGDVPKSIQCYMHETGASEEVARQHIKDMMRQMWKKVNAYTADKDSPLTGTTTEFLLNLVRMSHFMYLHGDGHGVQNQETIDVGFTLLFQPIPLEDKHMAFTASPGTKG
notes: 6xHis-tagged, E. coli BL21(DE3), Ni-NTA purified; printed as (+)-S-limonene synthase
As to B6, in data set [4], the Km is 24.94 ± 3.76 µM, the kcat turned out to be 0.306 ± 0.0147 s⁻¹ and the kcat/Km amounted to 12200 M⁻¹ s⁻¹. In addition, in data set [5], the Km came out at 81.55 ± 7.33 µM, the kcat was 0.619 ± 0.0293 s⁻¹ and the catalytic efficiency (kcat/Km) was 7600 M⁻¹ s⁻¹.

B7: ClLimS (Citrus x limon; H570Y) (protein)
chain: AKYKPVQCLISAKYDNLTVDRRSANYQPSIWDHDFLQSLNSNYTDEAYKRRAEELRGKVKIAIKDVIEPLDQLELIDNLQRLGLAHRFETEIRNILNNIYNNNKDYNWRKENLYATSLEFRLLRQHGYPVSQEVFNGFKDDQGGFICDDFKGILSLHEASYYSLEGESIMEEAWQFTSKHLKEVMISKNMEEDVFVAEQAKRALELPLHWKVPMLEARWFIHIYERREDKNHLLLELAKMEFNTLQAIYQEELKEISGWWKDTGLGEKLSFARNRLVASFLWSMGIAFEPQFAYCRRVLTISIALITVIDDIYDVYGTLDELEIFTDAVERWDINYALKHLPGYMKMCFLALYNFVNEFAYYVLKQQDFDLLLSIKNAWLGLIQAYLVEAKWYHSKYTPKLEEYLENGLVSITGPLIITISYLSGTNPIIKKELEFLESNPDIVHWSSKIFRLQDDLGTSSDEIQRGDVPKSIQCYMHETGASEEVARQHIKDMMRQMWKKVNAYTADKDSPLTGTTTEFLLNLVRMSHFMYLHGDGYGVQNQETIDVGFTLLFQPIPLEDKHMAFTASPGTKG
notes: as for B6
Consider B7, for which, in data set [4], the Km turned out to be 11.76 ± 4.82 µM, the kcat amounted to 0.149 ± 0.00717 s⁻¹ and the kcat/Km came to 12600 M⁻¹ s⁻¹. In addition, in data set [5], the Km was found to be 23.98 ± 6.41 µM, the kcat came out at 0.364 ± 0.0277 s⁻¹ and the kcat/Km came out at 15200 M⁻¹ s⁻¹.

B8: ClLimS (Citrus x limon; H570I) (protein)
chain: AKYKPVQCLISAKYDNLTVDRRSANYQPSIWDHDFLQSLNSNYTDEAYKRRAEELRGKVKIAIKDVIEPLDQLELIDNLQRLGLAHRFETEIRNILNNIYNNNKDYNWRKENLYATSLEFRLLRQHGYPVSQEVFNGFKDDQGGFICDDFKGILSLHEASYYSLEGESIMEEAWQFTSKHLKEVMISKNMEEDVFVAEQAKRALELPLHWKVPMLEARWFIHIYERREDKNHLLLELAKMEFNTLQAIYQEELKEISGWWKDTGLGEKLSFARNRLVASFLWSMGIAFEPQFAYCRRVLTISIALITVIDDIYDVYGTLDELEIFTDAVERWDINYALKHLPGYMKMCFLALYNFVNEFAYYVLKQQDFDLLLSIKNAWLGLIQAYLVEAKWYHSKYTPKLEEYLENGLVSITGPLIITISYLSGTNPIIKKELEFLESNPDIVHWSSKIFRLQDDLGTSSDEIQRGDVPKSIQCYMHETGASEEVARQHIKDMMRQMWKKVNAYTADKDSPLTGTTTEFLLNLVRMSHFMYLHGDGIGVQNQETIDVGFTLLFQPIPLEDKHMAFTASPGTKG
notes: as for B6
Turning to B8, in data set [4], the Km came out at 24.43 ± 6.44 µM, the kcat came out at 0.0035 ± 0.000333 s⁻¹ and the kcat/Km worked out at 150 M⁻¹ s⁻¹. Besides, in data set [5], the Michaelis-Menten constant (Km) came to 27.06 ± 4.72 µM, the kcat was found to be 0.0317 ± 0.00217 s⁻¹ and the kcat/Km stood at 1170 M⁻¹ s⁻¹.
